We go through two molecules from article PMC2625445, “Mycobacterium tuberculosis Rv3802c Encodes a Phospholipase/Thioesterase and Is Inhibited by the Antimycobacterial Agent Tetrahydrolipstatin” (PLoS ONE, 2009).

In data set [1] the target is T1, Rv3802 (Mycobacterium tuberculosis, UniProt O53581).
T1 construct: gene cut6
The experiment in a line: […]; TLC of […]-palmitoyl-CoA hydrolysis. In kind it is biochemical.

Data set [2] has as its system CCCCCCCCCC(=O)SCCNC(=O)CCNC(=O)[C@H](O)C(C)(C)COP(=O)(O)OP(=O)(O)OC[C@H]1O[C@@H](n2cnc3c(N)ncnc32)[C@H](O)[C@@H]1OP(=O)(O)O. Put plainly: purified protein.
For data set [3], the system named is CCCCCCCCCCCCCCCC(=O)SCCNC(=O)CCNC(=O)[C@H](O)C(C)(C)COP(=O)(O)OP(=O)(O)OC[C@H]1O[C@@H](n2cnc3c(N)ncnc32)[C@H](O)[C@@H]1OP(=O)(O)O. The experiment in a line: purified protein.

T1 sequence (O53581 37-336): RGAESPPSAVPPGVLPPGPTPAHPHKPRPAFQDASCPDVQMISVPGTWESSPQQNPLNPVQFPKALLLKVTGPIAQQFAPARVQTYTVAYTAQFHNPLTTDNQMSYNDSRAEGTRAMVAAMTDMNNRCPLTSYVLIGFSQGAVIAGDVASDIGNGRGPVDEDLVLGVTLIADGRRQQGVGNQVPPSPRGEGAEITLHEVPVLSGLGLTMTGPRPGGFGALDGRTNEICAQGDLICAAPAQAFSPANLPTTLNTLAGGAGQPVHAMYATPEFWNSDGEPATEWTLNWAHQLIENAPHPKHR

For the molecule `CCCCCCCCCCC[C@@H](C[C@@H]1OC(=O)[C@H]1CCCCCC)OC(=O)[C@H](CC(C)C)NC=O` [THL, tetrahydrolipstatin], the affinity in data set [1] corresponds to a Ki of 5 nM.

Take “Rv3802 (Mycobacterium tuberculosis H37Rv)”: in data set [2], the Km worked out at 2280 µM, the kcat was determined as 0.0845 ± 0.0253 s⁻¹ and the kcat/Km was 37 ± 11.1 M⁻¹ s⁻¹. In addition, the Km in data set [3] is 17 µM.
